Experimental data reported in patent US8598315B2, “Protein transduction domains derived from secretory leukocyte protease inhibitor” (Research Foundation of City University of New York, priority 2007, dated 2013).
Ends that are not written are not given here.

Experiments:
[1] = test system: retinal ganglion cell layer of the retina; experiment: Internalization in vivo after injection into the vitreous chamber of the eye; conditions: adult rats, 5 μl of 1 μg/μl into vitreous chamber, 4 hours
Experimental: To analyze the transduction characteristics of SLPI in vivo, fSLPI was injected into the eyes of adult rats. Long-Evans rats (200-250 g) were anesthetized with 2.5% isofluorane and 5 μl of fSLPI (1 μg/μl) or unconjugated fluorescein was injected into the vitreous chamber of the right eye using a glass micropipette (1 μm diameter) attached to a microsyringe pump. 4 hours later, the animals were sacrificed by transcardial perfusion with 4% paraformaldehyde. Following removal of the cornea and lens, the eyes were dissected out and post-fixed in 4% paraformaldehyde for 48 hours. Tissues were then cryoprotected in 30% sucrose in phosphate-buffered saline (PBS) for an additional 48 hours. Tissues were sectioned sagitally at 30 μm on a cryostat and thaw-mounted onto gelatin-coated slides.

[2] = test system: retinal ganglion cell layer of the retina; experiment: SLPI-derived PTD injected into adult eye (Example 8, expected result); conditions: adult rats, injected into the eyes, 4 hours
Experimental: To analyze the transduction characteristics of SLPI11-25 in vivo, fSLPI11-25 is injected into the eyes of adult rats.

[3] = test system: Chinese hamster ovary (CHO) cells; experiment: Presence in the underlying CHO cell monolayer at 4° C.; assay type: cell-based; conditions: 10 μg/ml, 4 hours
Experimental: (§1) For these experiments, monolayers of Chinese hamster ovary (CHO) cells were prepared by plating 75,000 cells into the wells of 8-well chamber slides coated with 20 μg/ml PDL and 10 μg/ml fibronectin (Mukhopadhyay et al., 1994, supra). These cells were incubated overnight at 37° C. to allow the monolayers to form. P6 DRG neurons were then isolated, plated on the monolayers in SATO culture medium, and incubated for an additional 16 hours. This approach was used because of the harsh conditions used in these experiments. Neurons would likely fail to adhere to the slides if plated directly onto PDL and incubated at 4° C., and so, we enhanced adhesion by plating the neurons on CHO cell monolayers and allowing them to extend neurites. Cold SATO culture medium was supplemented with 10 μg/ml penetratin, fSLPI, or SLPI11-25 and added to the wells containing the neurons. The slides were then covered and incubated at 4° C. for 4 hours. Cells were then fixed and immunostained for βIII tubulin as described.

DRG neurons [4] = experiment: Internalization of fluorescein-labeled SLPI/peptides by DRG neurons at 37° C. (fluorescence microscopy); assay type: cell-based; conditions: for internalization / presence in nuclei of DRG neurons: P6 DRG neurons, 5 μg/ml, 15 minutes
Experimental: To visualize internalization of SLPI in living cells, SLPI was labeled with fluorescein using a Fluorescein-EX protein labeling kit (Molecular Probes). The labeling reaction was performed following the protocol provided by the manufacturer. P5 DRG neurons were isolated (Mukhopadhyay et al., 1994; DeBellard et al., 1996; Cai et al., 1999; supra) and treated with either 10 μg/ml of fluorescein-labeled SLPI (fSLPI) or unconjugated fluorescein in SATO culture medium. Cells were then plated in 8 well chamber slides coated with 100 μg/ml poly-D-lysine (PDL) and incubated for 1 hour at 37° C. Cells were then fixed with 4% paraformaldehyde and immunostained using a monoclonal antibody to the neuronal marker βIII tubulin (1:1000 dilution, Covance). After an overnight incubation at 4° C., the cells were rinse and incubated successively with biotinylated anti-mouse antibody (1:500 dilution, Amersham) and Texas Red-conjugated streptavidin (1:300 dilution, Amersham). Slides were then coverslipped and viewed using an upright fluorescence microscope.
To further characterize SLPI internalization into living cells, P5 DRG neurons in SATO culture medium were treated with unconjugated fluorescein, 1 μg/ml fSLPI, or 10 μg/ml fSLPI and plated onto PDL-coated slides for 5 minutes at 37° C. Cells were then fixed and immunostained for βIII tubulin as described.
The transduction characteristics of a SLPI-derived PTD comprising amino acids 11-25 of human SLPI (SLPI11-25) were compared to those of the SLPI protein. SLPI11-25 and penetratin were custom synthesized and labeled with fluorescein at the C-terminus by Invitrogen. P6 DRG neurons were isolated and treated with unconjugated fluorescein, 5 μg/ml fSLPI, 5 μg/ml SLPI11-25, or 5 μg/ml penetratin in SATO culture medium. Cells were plated onto PDL-coated slides and incubated for 15 minutes at 37° C. Cells were then fixed and immunostained for βIII tubulin as described.

DRG neurons [5] = experiment: Internalization at 4° C. by DRG neurons plated on CHO cell monolayers; assay type: cell-based; conditions: P6 DRG neurons, 10 μg/ml, 4 hours
Experimental: as §1

[6] = Blood brain barrier crossing after intraperitoneal injection; assay type: in vivo, 129SI/SV1MJ mice; conditions: mice, intraperitoneal 100 μg
Experimental: To assess whether SLPI crosses the blood brain barrier, adult 129SI/SV1MJ mice received intraperitoneal injections of 100 μg fSLPI in sterile PBS or unconjugated fluorescein (500 μl total volume). Mice were sacrificed by transcardial perfusion with 4% paraformaldehyde after 4 and 8 hours. The brains and cervical spinal cords were dissected out and prepared for sectioning as described. Tissues were sectioned coronally at 30 μm and slides were coverslipped as described. […] This may be an inherent property of SLPI or may be secondary to its observed efficient cellular internalization which may in turn prevent SLPI from ever reaching the CNS in high enough concentrations to be detected.
To assess whether SLPI11-25 crosses the blood brain barrier, 129SI/SV1MJ mice received intraperitoneal injections of 100 μg SLPI11-25 or penetratin in sterile PBS ([…]). Mice were sacrificed after 1 and 4 hours, and the brains and cervical spinal cords were prepared for sectioning as described. Tissues were sectioned coronally at 30 μm and slides were coverslipped as described. […] This may be an inherent property of SLPI-derived PTDs, or may be secondary to its observed efficient cellular internalization, which may in turn prevent the SLPI-derived PTD from ever reaching the CNS in high enough concentrations to be detected.

cerebellar neurons = experiment: Western blot of cytoplasmic and nuclear fractions of treated cerebellar neurons; assay type: cell-based, rats; conditions: 0, 1, 5, and 10 μg/ml, 1 hour, 37° C.
Experimental: FIG. 1: Western blot analysis of cytoplasmic and nuclear fractions from cerebellar neurons treated with 0, 1, 5, and 10 μg/ml SLPI for 1 hour. Higher levels of SLPI are observed in both cytoplasmic and nuclear fractions with increasing concentrations of SLPI. Phospho-CREB is used as a nuclear marker and actin is used as a loading control. See Example 1.
To characterize the transduction abilities of the SLPI protein, cerebellar neurons were isolated from postnatal day 6 (P6) rats (Mukhopadhyay et al., Neuron 13:757-767 (1994); DeBellard et al., Mol. Cell. Neurosci. 7:89-101 (1996); Cai et al., Neuron 22:89-101 (1999)) and treated with 0, 1, 5, and 10 μg/ml recombinant human SLPI (R&D Systems) in SATO culture medium (Doherty et al., Neuron 5:209-219 (1990); Nature 343:464-466 (1990)). Cells were incubated at 37° C. for 1 hour, and cytoplasmic and nuclear fractions were prepared using NE-PER cytoplasmic and nuclear extraction reagents (Pierce). Protein samples were subjected to SDS-PAGE using 15% SDS polyacrylamide gels and transferred to nitrocellulose. SLPI was detected using a polyclonal antibody to recombinant human SLPI (R&D Systems). […] The nuclear localization of SLPI was then confirmed by reprobing the membrane for a well-known nuclear marker: phosphorylated cyclic AMP response element binding protein (pCREB; Cell Signaling). […]

Molecule: O=C1OC2(c3ccc(O)cc3Oc3cc(O)ccc32)c2ccccc21 [fluorescein]
- presence in the retinal ganglion cell layer of the retina [1]: no signal was observed
- presence in the retinal ganglion cell layer of the retina [2]: no signal is observed

Molecule: SLPI11-25: SLPI-derived PTD, amino acids 11-25 of human SLPI (PPKKSAQCLRYKKPE, SEQ ID NO: 2), labeled with fluorescein at the C-terminus (PPKKSAQCLRYKKPE-fluorescein; listed as Homo sapiens)
- present in the underlying CHO cell monolayer [3]: not
- internalization / presence in nuclei of DRG neurons (DRG neurons [4]): present in the nuclei of DRG neurons
- nuclear localization at the restrictive temperature (DRG neurons [5]): still occurred at the restrictive temperature
- observed in the brain and spinal cord ([6]; 1 and 4 hours): No SLPI11-25 was observed in the brain and spinal cord at either time point

B1: SLPI: recombinant human secretory leukocyte protease inhibitor (R&D Systems), 107 amino acid polypeptide, SEQ ID NO: 1 (protein, listed as Homo sapiens)
chain: SGKSFKAGVCPPKKSAQCLRYKKPECQSDWQCPGKKRCCPDTCGIKCLDPVDTPNPTRRKPGKCPVTYGQCLMLNPPNFCEMDGQCKRDLKCCMGMCGKSCVSPVKA
- SLPI in cytoplasmic and nuclear fractions (cerebellar neurons): present in increasing amounts in both the cytoplasmic and nuclear fractions

B2: fSLPI: SLPI labeled with fluorescein using a Fluorescein-EX protein labeling kit (protein, UniProt P03973 26-132, looked up)
Antileukoproteinase: B1 chain
modifications: fluorescein label
notes: SLPI labeled with fluorescein using a Fluorescein-EX protein labeling kit
- present in the underlying CHO cell monolayer [3]: not
- internalization into nuclei (DRG neurons [4]; P5 DRG neurons, 1 μg/ml or 10 μg/ml, 5 minutes): internalized into nuclei within 5 minutes in a dose-dependent manner
- internalization / presence in nuclei of neurons (DRG neurons [4]; P5 DRG neurons, 10 μg/ml, 1 hour): clearly present in the nuclei of neurons
- internalization / presence in nuclei of DRG neurons (DRG neurons [4]): present in the nuclei of DRG neurons
- nuclear localization at the restrictive temperature (DRG neurons [5]): still occurred at the restrictive temperature
- observed in the brain and spinal cord ([6]; 4 and 8 hours): No fSLPI was observed in the brain and spinal cord at either time point
